Source: PMC10412585 (2023)
Blank lines part the entries; values can stand above or below the binder they belong to.

Columns and labels:
[1] = biological target: … peptide HLA-E single chain trimer (soluble, biotinylated) (human, biotin (AviTag)); assay: SPR
[2] = biological target: CREB3L1_(419-427) HLA-E single chain trimer (soluble, biotinylated) (human, biotin (AviTag)); assay: SPR
[3] = biological target: AKAP6_(388-396) HLA-E single chain trimer (soluble, biotinylated) (human, biotin (AviTag)); assay: SPR
[4] = biological target: PISD_(55-63) HLA-E single chain trimer (soluble, biotinylated) (human, biotin (AviTag)); assay: SPR
[5] = biological target: BFAR_(263-271) HLA-E single chain trimer (soluble, biotinylated) (human, biotin (AviTag)); assay: SPR
[6] = biological target: GTF3C5_(293-301) HLA-E single chain trimer (soluble, biotinylated) (human, biotin (AviTag)); assay: SPR; weak binder not approaching saturation, inexact

Kd [1]: ~23.8 µM
Kd [2]: ~9.8 µM
Kd [3]: ~15.6 µM
Kd [4]: ~16 µM
Kd [5]: ~1.8 µM
Kd [6]: ~92.4 µM
B1: CD94/NKG2C single-chain fusion protein (human NKG2C ectodomain - GGSGGS - human CD94 ectodomain), produced in Hi5 cells for SPR (receptor)
chain: not shown

Kd [1]: ~8.9 µM
Kd [2]: ~3.3 µM
Kd [3]: ~4.1 µM
Kd [4]: ~12.1 µM
Kd [5]: ~0.8 µM
Kd [6]: ~28.1 µM
B2: CD94/NKG2A single-chain fusion protein (human NKG2A ectodomain - GGSGGS - human CD94 ectodomain), produced in Hi5 cells for SPR (receptor)
chain: not shown
